Experimental data: PMC11838199

Biological target: C12ORF57-FLAG (human) (UniProt Q99622)
Test: co-IP

Sequence of UniProt Q99622 (Q99622 whole entry): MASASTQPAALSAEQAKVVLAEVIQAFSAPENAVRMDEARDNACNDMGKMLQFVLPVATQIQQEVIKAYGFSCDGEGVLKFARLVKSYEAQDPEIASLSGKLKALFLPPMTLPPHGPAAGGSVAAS

Substance | change in CAMK4 co-precipitated with C12ORF57-FLAG, against wild type CAMK4
CAMK4 lacking the calmodulin binding domain (NCB) (from UniProt Q16566 1-473) (enzyme) | -6.13%
CAMK4 lacking the autoinhibitory domain (NAI) (from UniProt Q16566 1-473) (enzyme) | -65.8%
